The values below come from PMC11719512, “Exploring the Binding Mechanism of ADGRG2 Through Metadynamics and Biochemical Analysis” (International Journal of Molecular Sciences, 2024).

One assay concerns the target DOC. In words: BRET-based binding assay. Particulars: parent: est. -7.3; read off a plot.
For assay [1], the system named is ADGRG2 (Nluc-ADGRG2 and its alanine mutants). Description: FlAsh-BRET / BRET-based ligand binding assay with ADGRG2 mutants. Particulars: HEK293, competition with 50 μM IP15–FITC, 10^−9 to 10^−4 M competitor, HBSS, 40 min at 37 °C; mean ± SEM, n = 3. How it is done: HEK293 cells were transiently transfected with plasmids for Nluc-ADGRG2 and its various mutants (ADGRG2-T624A, ADGRG2-C628A, ADGRG2-N668A, ADGRG2-Y758A, ADGRG2-K760A, ADGRG2-D768A, ADGRG2-N773A, ADGRG2-N775A, ADGRG2-N849A, ADGRG2-N860A). The cells were plated at a density of 3 × 10^4 per well in a black 96-well plate and cultured for 48 h at 37 °C with 5% CO2. To assess saturation binding, increasing concentrations of FITC-labeled IP15 (IP15–FITC) were added, alongside or without 300 μM of unlabeled IP15, for a 40-min incubation at 37 °C. For competitive binding assays, cells were treated with 50 μM IP15–FITC and varying concentrations (10^−9 to 10^−4 M) of competing peptides in HBSS buffer (containing 25 mM HEPES, 10 mM glucose, 146 mM NaCl, 5 mM KCl, 1 mM MgSO4, 2 mM sodium pyruvate, and 1.3 mM CaCl2) for 40 min at 37 °C. Coelenterazine H (final concentration of 5 μM, Promega) was added just before measuring BRET signals using a Mithras LB 940 Multimode Microplate Reader. Light emissions were recorded at 460 nm (80 nm bandpass) and 535 nm (60 nm bandpass) for IP15–FITC, and the raw BRET ratio was calculated as the 535 nm emission divided by the 460 nm emission.
On the technique in general: BRET reads energy transfer from a luciferase to a nearby fluorophore.

The next assay concerns ADGRG2. Particulars: steroid hormones; endogenous; ref [23]; cited from earlier work. The text has this:
Stachel (sequence: TSFGILLDLSRTSLP, with individual residues numbered from ss01 to ss15, where “ss” denotes Stachel sequence) is a key functional element of ADGRG2, playing a critical role in regulating the conformation and function of the receptor [8]. The Stachel sequence plays a pivotal role in receptor activation by mediating ligand binding and initiating the conformational changes required for signal transduction, highlighting its biological significance. In previous studies, the wild-type ADGRG2 Stachel sequence-derived peptidic agonist, VPM, was found t ... || Figure 1 Structural and binding analysis of ADGRG2 with agonists and antagonists. (A) Structure of ADGRG2, highlighting key domains involved in ligand binding. Identified agonists (DHEA, DHEAS, IP15) and antagonists (DOC, F601D, F601E) are labeled. […] (B) Schematic representation of metadynamics simulations and ligand binding assay conducted to investigate the binding mechanisms of antagonists F601D, F601E, and DOC to ADGRG2. (C) Structural representation of ADGRG2 in complex wi ...

The target in the next assay is T1, VPM-F601E, Q8CJ12.
T1 chain: TSEGILLDLSRTSLP
Description: BRET-based binding assay. Particulars: chain shown with the change;, read off a plot.

Another assay has as its target T2, VPM-F601D, Q8CJ12.
T2 chain: TSDGILLDLSRTSLP
In words: BRET-based binding assay. Particulars: chain shown with the change;; parent: est. -8.0; read off a plot.

In general, IC50 refers to the concentration that gives 50% inhibition. “Nluc-ADGRG2 (wild type) (from UniProt Q8CJ12) K760A”: the half-maximal inhibitory concentration (IC50) with DOC is -5.6 log10(M).
Turning to deoxycorticosterone [DOC], the “binding to ADGRG2 with mutated polar residues (C628, N668, K760, D768, N860)” value in assay [1] is “significantly weakened DOC’s ability to bind to ADGRG2”. Further, the “activity on ADGRG2 (agonist or antagonist)” value (“activity on ADGRG2” below) in the assay on ADGRG2 is “endogenous antagonist”.
For the molecule `C[C@]12CC[C@H](O)CC1=CC[C@@H]1[C@@H]2CC[C@]2(C)C(=O)CC[C@@H]12` [DHEA, dehydroepiandrosterone], in the assay with ADGRG2, the “activity on ADGRG2” value is recorded as “endogenous agonists”.
Turning to `C[C@]12CC[C@H](OS(=O)(=O)O)CC1=CC[C@@H]1[C@@H]2CC[C@]2(C)C(=O)CC[C@@H]12` [DHEAS], in the assay on ADGRG2, the “activity on ADGRG2” value is “endogenous agonists”.
Consider “Nluc-ADGRG2 (wild type) (from UniProt Q8CJ12) D768A”, for which the IC50 with DOC is -5.9 log10(M).

B1: Nluc-ADGRG2 (wild type), Q8CJ12 Y758A (protein)
chain: LKENGNSSLLSPSAESSLVSLIPYSNGTPDAASEVLSTLNKTEKSKITIVKTFNASGVKSQRNICNLSSLCNDSVFFRGEIVFQHDEDHNVTQNQDTANGTFAGVLSLSELKRSELNKTLQTLSETYFIVCATAEAQSTVNCTFTVKLNETMNVCAMMVTFQTVQIRPMEQCCCSPRTPCPSSPEELEKLQCELQDPIVCLADQPHGPPLSSSSKPVVPQATIISHVASDFSLAEPLDHALMTPSTPSLTQESNLPSPQPTIPLASSPATDLPVQSVVVSSLPQTDLSHTLSPVQSSIPSPTTPAPSVPTELVTISTPPGETVVNTSTVSDLEAQVSQMEKALSLGSLEPNLAGEMVNRVSKLLHSPPALLAPLAQRLLKVVDAIGLQLNFSSTTISLTSPSLALAVIRVNASNFNTTTFAAQDPTNLQVSLETPPPENSIGAITLPSSLMNNLPANDVELASRIQFNFFETPALFQDPSLENLTLISYVISSSVTNMTIKNLTRNVTVALKHINPSPDDLTVKCVFWDLGRNGGKGGWSSDGCSVKDKRMNETICTCSHLTSFGILLDLSRTSLPPSQMMALTFITYIGCGLSSIFLSVTLVTYIAFEKIRRDYPSKILIQLCAALLLLNLIFLLDSWIALYNTRGFCIAVAVFLHYFLLVSFTWMGLEAFHMYLALVKVFNTYIRKYILKFCIVGWGIPAVVVSIVLTISPDNYGIGSAGKFPNGTPDDFCWINSNVVFYITVVGYFCVIFLLNVSMFIVVLVQLCRIKKKKQLGAQRKTSIQDLRSIAGLTFLLGITWGFAFFAWGPVNVTFMYLFAIFNTLQGFFIFIFYCAAKENVRKQWRRYLCCGKL
As for B1, the half-inhibitory concentration (IC50) with VPM-F601E, Q8CJ12 (parent: est. -8.5) was -7.1 log10(M).

B2: Nluc-ADGRG2 (wild type), Q8CJ12 N775A (protein)
chain: LKENGNSSLLSPSAESSLVSLIPYSNGTPDAASEVLSTLNKTEKSKITIVKTFNASGVKSQRNICNLSSLCNDSVFFRGEIVFQHDEDHNVTQNQDTANGTFAGVLSLSELKRSELNKTLQTLSETYFIVCATAEAQSTVNCTFTVKLNETMNVCAMMVTFQTVQIRPMEQCCCSPRTPCPSSPEELEKLQCELQDPIVCLADQPHGPPLSSSSKPVVPQATIISHVASDFSLAEPLDHALMTPSTPSLTQESNLPSPQPTIPLASSPATDLPVQSVVVSSLPQTDLSHTLSPVQSSIPSPTTPAPSVPTELVTISTPPGETVVNTSTVSDLEAQVSQMEKALSLGSLEPNLAGEMVNRVSKLLHSPPALLAPLAQRLLKVVDAIGLQLNFSSTTISLTSPSLALAVIRVNASNFNTTTFAAQDPTNLQVSLETPPPENSIGAITLPSSLMNNLPANDVELASRIQFNFFETPALFQDPSLENLTLISYVISSSVTNMTIKNLTRNVTVALKHINPSPDDLTVKCVFWDLGRNGGKGGWSSDGCSVKDKRMNETICTCSHLTSFGILLDLSRTSLPPSQMMALTFITYIGCGLSSIFLSVTLVTYIAFEKIRRDYPSKILIQLCAALLLLNLIFLLDSWIALYNTRGFCIAVAVFLHYFLLVSFTWMGLEAFHMYLALVKVFNTYIRKYILKFCIVGWGIPAVVVSIVLTISPDNYGIGSYGKFPNGTPDDFCWINSAVVFYITVVGYFCVIFLLNVSMFIVVLVQLCRIKKKKQLGAQRKTSIQDLRSIAGLTFLLGITWGFAFFAWGPVNVTFMYLFAIFNTLQGFFIFIFYCAAKENVRKQWRRYLCCGKL
B2: the IC50 in the assay with VPM-F601D, Q8CJ12 was -7.6 log10(M); with VPM-F601E, Q8CJ12 (parent: est. -8.1) it was -5.4 log10(M).

B3: Nluc-ADGRG2 (wild type), Q8CJ12 K760A (protein)
chain: LKENGNSSLLSPSAESSLVSLIPYSNGTPDAASEVLSTLNKTEKSKITIVKTFNASGVKSQRNICNLSSLCNDSVFFRGEIVFQHDEDHNVTQNQDTANGTFAGVLSLSELKRSELNKTLQTLSETYFIVCATAEAQSTVNCTFTVKLNETMNVCAMMVTFQTVQIRPMEQCCCSPRTPCPSSPEELEKLQCELQDPIVCLADQPHGPPLSSSSKPVVPQATIISHVASDFSLAEPLDHALMTPSTPSLTQESNLPSPQPTIPLASSPATDLPVQSVVVSSLPQTDLSHTLSPVQSSIPSPTTPAPSVPTELVTISTPPGETVVNTSTVSDLEAQVSQMEKALSLGSLEPNLAGEMVNRVSKLLHSPPALLAPLAQRLLKVVDAIGLQLNFSSTTISLTSPSLALAVIRVNASNFNTTTFAAQDPTNLQVSLETPPPENSIGAITLPSSLMNNLPANDVELASRIQFNFFETPALFQDPSLENLTLISYVISSSVTNMTIKNLTRNVTVALKHINPSPDDLTVKCVFWDLGRNGGKGGWSSDGCSVKDKRMNETICTCSHLTSFGILLDLSRTSLPPSQMMALTFITYIGCGLSSIFLSVTLVTYIAFEKIRRDYPSKILIQLCAALLLLNLIFLLDSWIALYNTRGFCIAVAVFLHYFLLVSFTWMGLEAFHMYLALVKVFNTYIRKYILKFCIVGWGIPAVVVSIVLTISPDNYGIGSYGAFPNGTPDDFCWINSNVVFYITVVGYFCVIFLLNVSMFIVVLVQLCRIKKKKQLGAQRKTSIQDLRSIAGLTFLLGITWGFAFFAWGPVNVTFMYLFAIFNTLQGFFIFIFYCAAKENVRKQWRRYLCCGKL
Take B3: the concentration for half-maximal inhibition (IC50) with VPM-F601D, Q8CJ12 is -7.7 log10(M); with VPM-F601E, Q8CJ12 (parent: est. -8.5), -7 log10(M).

B4: Nluc-ADGRG2 (wild type), Q8CJ12 N849A (protein)
chain: LKENGNSSLLSPSAESSLVSLIPYSNGTPDAASEVLSTLNKTEKSKITIVKTFNASGVKSQRNICNLSSLCNDSVFFRGEIVFQHDEDHNVTQNQDTANGTFAGVLSLSELKRSELNKTLQTLSETYFIVCATAEAQSTVNCTFTVKLNETMNVCAMMVTFQTVQIRPMEQCCCSPRTPCPSSPEELEKLQCELQDPIVCLADQPHGPPLSSSSKPVVPQATIISHVASDFSLAEPLDHALMTPSTPSLTQESNLPSPQPTIPLASSPATDLPVQSVVVSSLPQTDLSHTLSPVQSSIPSPTTPAPSVPTELVTISTPPGETVVNTSTVSDLEAQVSQMEKALSLGSLEPNLAGEMVNRVSKLLHSPPALLAPLAQRLLKVVDAIGLQLNFSSTTISLTSPSLALAVIRVNASNFNTTTFAAQDPTNLQVSLETPPPENSIGAITLPSSLMNNLPANDVELASRIQFNFFETPALFQDPSLENLTLISYVISSSVTNMTIKNLTRNVTVALKHINPSPDDLTVKCVFWDLGRNGGKGGWSSDGCSVKDKRMNETICTCSHLTSFGILLDLSRTSLPPSQMMALTFITYIGCGLSSIFLSVTLVTYIAFEKIRRDYPSKILIQLCAALLLLNLIFLLDSWIALYNTRGFCIAVAVFLHYFLLVSFTWMGLEAFHMYLALVKVFNTYIRKYILKFCIVGWGIPAVVVSIVLTISPDNYGIGSYGKFPNGTPDDFCWINSNVVFYITVVGYFCVIFLLNVSMFIVVLVQLCRIKKKKQLGAQRKTSIQDLRSIAGLTFLLGITWGFAFFAWGPVAVTFMYLFAIFNTLQGFFIFIFYCAAKENVRKQWRRYLCCGKL
For B4, in the assay with VPM-F601D, Q8CJ12, the IC50 is -7.9 log10(M).

B5: Nluc-ADGRG2 (wild type), Q8CJ12 N773A (protein)
chain: LKENGNSSLLSPSAESSLVSLIPYSNGTPDAASEVLSTLNKTEKSKITIVKTFNASGVKSQRNICNLSSLCNDSVFFRGEIVFQHDEDHNVTQNQDTANGTFAGVLSLSELKRSELNKTLQTLSETYFIVCATAEAQSTVNCTFTVKLNETMNVCAMMVTFQTVQIRPMEQCCCSPRTPCPSSPEELEKLQCELQDPIVCLADQPHGPPLSSSSKPVVPQATIISHVASDFSLAEPLDHALMTPSTPSLTQESNLPSPQPTIPLASSPATDLPVQSVVVSSLPQTDLSHTLSPVQSSIPSPTTPAPSVPTELVTISTPPGETVVNTSTVSDLEAQVSQMEKALSLGSLEPNLAGEMVNRVSKLLHSPPALLAPLAQRLLKVVDAIGLQLNFSSTTISLTSPSLALAVIRVNASNFNTTTFAAQDPTNLQVSLETPPPENSIGAITLPSSLMNNLPANDVELASRIQFNFFETPALFQDPSLENLTLISYVISSSVTNMTIKNLTRNVTVALKHINPSPDDLTVKCVFWDLGRNGGKGGWSSDGCSVKDKRMNETICTCSHLTSFGILLDLSRTSLPPSQMMALTFITYIGCGLSSIFLSVTLVTYIAFEKIRRDYPSKILIQLCAALLLLNLIFLLDSWIALYNTRGFCIAVAVFLHYFLLVSFTWMGLEAFHMYLALVKVFNTYIRKYILKFCIVGWGIPAVVVSIVLTISPDNYGIGSYGKFPNGTPDDFCWIASNVVFYITVVGYFCVIFLLNVSMFIVVLVQLCRIKKKKQLGAQRKTSIQDLRSIAGLTFLLGITWGFAFFAWGPVNVTFMYLFAIFNTLQGFFIFIFYCAAKENVRKQWRRYLCCGKL
As to B5, the concentration for half-maximal inhibition (IC50) in the assay with VPM-F601D, Q8CJ12 is -6.2 log10(M).
